Values joined by “and” are separate entries in the source; they are usually repeats but may differ in a detail not shown here. Equal values may be shown once.
Target: the molecule itself
Assay: AUC; sedimentation velocity, 2.4 mg/ml, absorbance at 280 nm, 40,000 rpm, 24 °C, analysed with Sedfit

| Protein | stoichiometry N |
| --- | --- |
| BCH domain of S. pombe p50RhoGAP, wild type (YBCH 1-156 a.a) (domain or fragment, UniProt Q9P3B1 1-156, looked up, S. pombe homolog of p50RhoGAP (SPAC1565.02c protein), BCH domain, residues 1-156; The methods tell cloning, expression and purification only for the P116A mutant (parent construct (His)6-SlyD YBCH in pET32a); also called WT YBCH; yeast BCH) MEHDLERLCFIGGYDNDNDKVIVVVTKNLELFKKYDDINLIKEAYNHVHKLIQKDERYTAVFFAHDSTVFSYLGLSLKAYYGMDYYLHKNVKAVYVIHTDWMSKVAIRTLLSIASPKFTRKFRYLNSISDLNKYIPLSHLKLPPIVYEFDRNVEPA | 2 |
| P116A mutant of the BCH domain of S. pombe p50RhoGAP (YBCH 1-156 a.a) (domain or fragment, UniProt Q9P3B1 1-156, looked up, S. pombe homolog of p50RhoGAP (SPAC1565.02c protein), BCH domain, residues 1-156, Pro116 to Ala; SlyD tag cleaved with PreScission protease; also called P116A-YBCH; YBCH P116A; source: E. coli BL21 (DE3), purified (Ni-NTA, cation exchange, gel filtration)) MEHDLERLCFIGGYDNDNDKVIVVVTKNLELFKKYDDINLIKEAYNHVHKLIQKDERYTAVFFAHDSTVFSYLGLSLKAYYGMDYYLHKNVKAVYVIHTDWMSKVAIRTLLSIASAKFTRKFRYLNSISDLNKYIPLSHLKLPPIVYEFDRNVEPA | 2 and 4 |

Reference: PMC11090974, “Structural basis for the distinct roles of non-conserved Pro116 and conserved Tyr124 of BCH domain of yeast p50RhoGAP” (Cellular and Molecular Life Sciences: CMLS, 2024)
